Publication PMC3884069 (Cellular and molecular life sciences : CMLS, 2012)

B1: HLA-G4 (membrane-bound HLA-G isoform, α1–α2 domains) (natural protein, human, UniProt P17693-4 25-246, looked up)
MHC heavy: GSHSMRYFSAAVSRPGRGEPRFIAMGYVDDTQFVRFDSDSACPRMEPRAPWVEQEGPEYWEEETRNTKAHAQTDRMNLQTLRGYYNQSEASSHTLQWMIGCDLGSDGRLLRGYEQYAYDGKDYLALNEDLRSWTAADTAAQISKRKCEAANVAEQRRAYLEGTCVEWLHRYLENGKEMLQRAKQSSLPTIPIMGIVAGLVVLAAVVTGAAVAAVLWRKKSSD
B2: HLA-G2 (membrane-bound HLA-G isoform, α1–α3 domains) (natural protein, human, UniProt P17693-2 25-246, looked up)
MHC heavy: GSHSMRYFSAAVSRPGRGEPRFIAMGYVDDTQFVRFDSDSACPRMEPRAPWVEQEGPEYWEEETRNTKAHAQTDRMNLQTLRGYYNQSEANPPKTHVTHHPVFDYEATLRCWALGFYPAEIILTWQRDGEDQTQDVELVETRPAGDGTFQKWAAVVVPSGEEQRYTCHVQHEGLPEPLMLRWKQSSLPTIPIMGIVAGLVVLAAVVTGAAVAAVLWRKKSSD

What was measured:
[1] = biological target: HLA-G6 (soluble HLA-G isoform, α1–α3 domains) (human) (UniProt P17693); experiment: non-reducing SDS-PAGE and western blot
[2] = biological target: the molecule itself; experiment: non-reducing SDS-PAGE and western blot

Molecule | stoichiometry N [1] | stoichiometry N [2]
HLA-G6 (soluble HLA-G isoform, α1–α3 domains) (from UniProt P17693-6 25-227) (natural protein) | 2 | 
B1 |  | 2
B2 |  | 2
